The assay deals with GIV (Gα-interacting vesicle-associated protein, also known as Girdin), endogenous (human (endogenous in THP1)) (UniProt Q3V6T2).
Chain of UniProt Q3V6T2 (Q3V6T2 whole entry): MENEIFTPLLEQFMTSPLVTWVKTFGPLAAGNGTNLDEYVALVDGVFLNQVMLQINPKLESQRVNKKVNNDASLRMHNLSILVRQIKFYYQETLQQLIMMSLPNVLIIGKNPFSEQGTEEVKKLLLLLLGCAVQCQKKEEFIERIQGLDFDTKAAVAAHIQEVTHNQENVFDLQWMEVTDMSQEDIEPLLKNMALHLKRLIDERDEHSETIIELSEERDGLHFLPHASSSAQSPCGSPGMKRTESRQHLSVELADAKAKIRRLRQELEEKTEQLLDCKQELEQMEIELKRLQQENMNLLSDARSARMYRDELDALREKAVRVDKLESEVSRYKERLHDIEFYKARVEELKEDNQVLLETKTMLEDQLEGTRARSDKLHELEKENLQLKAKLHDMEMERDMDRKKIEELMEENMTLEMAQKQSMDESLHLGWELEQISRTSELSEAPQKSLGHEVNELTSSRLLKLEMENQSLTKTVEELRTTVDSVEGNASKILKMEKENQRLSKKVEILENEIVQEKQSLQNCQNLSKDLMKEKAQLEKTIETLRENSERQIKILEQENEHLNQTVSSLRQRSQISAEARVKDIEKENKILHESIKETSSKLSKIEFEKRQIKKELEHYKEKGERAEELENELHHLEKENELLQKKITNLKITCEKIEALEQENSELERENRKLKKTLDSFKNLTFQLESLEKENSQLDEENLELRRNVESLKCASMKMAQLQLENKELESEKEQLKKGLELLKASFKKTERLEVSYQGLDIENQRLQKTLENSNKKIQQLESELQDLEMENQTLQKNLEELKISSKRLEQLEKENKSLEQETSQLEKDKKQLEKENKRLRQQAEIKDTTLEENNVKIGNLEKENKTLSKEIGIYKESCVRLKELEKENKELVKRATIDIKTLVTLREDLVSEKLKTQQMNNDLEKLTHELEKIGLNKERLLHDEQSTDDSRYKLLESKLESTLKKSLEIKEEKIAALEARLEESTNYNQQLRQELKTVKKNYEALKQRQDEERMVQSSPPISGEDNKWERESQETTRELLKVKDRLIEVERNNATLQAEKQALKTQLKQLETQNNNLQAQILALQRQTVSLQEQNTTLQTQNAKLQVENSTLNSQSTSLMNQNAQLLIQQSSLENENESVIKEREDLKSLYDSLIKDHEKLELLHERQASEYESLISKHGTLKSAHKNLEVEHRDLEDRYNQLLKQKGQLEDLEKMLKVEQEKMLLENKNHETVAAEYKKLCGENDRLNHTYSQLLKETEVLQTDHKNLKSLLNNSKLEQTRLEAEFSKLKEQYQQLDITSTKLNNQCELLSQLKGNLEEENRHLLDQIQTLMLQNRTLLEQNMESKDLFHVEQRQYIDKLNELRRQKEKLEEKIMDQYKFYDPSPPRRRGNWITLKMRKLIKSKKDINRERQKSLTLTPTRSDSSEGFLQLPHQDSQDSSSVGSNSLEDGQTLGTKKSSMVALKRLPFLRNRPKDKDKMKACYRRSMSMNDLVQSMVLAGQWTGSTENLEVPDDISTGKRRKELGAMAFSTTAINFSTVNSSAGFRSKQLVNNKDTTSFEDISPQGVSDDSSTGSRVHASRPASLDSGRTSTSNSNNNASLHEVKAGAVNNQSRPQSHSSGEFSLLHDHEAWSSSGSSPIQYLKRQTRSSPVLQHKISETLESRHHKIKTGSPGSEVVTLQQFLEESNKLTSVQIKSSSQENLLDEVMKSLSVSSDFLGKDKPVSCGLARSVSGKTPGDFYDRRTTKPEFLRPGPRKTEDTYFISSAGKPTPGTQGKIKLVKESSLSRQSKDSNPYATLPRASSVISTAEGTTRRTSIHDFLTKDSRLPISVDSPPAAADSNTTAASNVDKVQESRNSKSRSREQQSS

For the substance “HA-tagged NOD2–1007fs (from UniProt Q9HC29 1-1040) (natural protein)”, the suppression of LPS (100 ng/ml)-induced NFκB activation by MDP (10 μg/ml) pretreatment, luciferase reporter assay in HeLa cells transfected with NOD2-1007fs (% protection) amounted to 20%.

Values taken from paper doi:10.1101/2025.01.21.634180.
